Data from article PMC9482650, “Quantitative fragmentomics allow affinity mapping of interactomes” (Nature Communications, 2022).
Positions count from the first letter of the chain named.

Legend:
Experiment in all cases: holdup assay
Design in all cases: key: below the threshold = too weak to quantify, mostly under pKd 3.1 to 4
[1] = target: T1, APBA2_2, Q99767
T1 sequence (Q99767 654-744, limits assumed, looked up): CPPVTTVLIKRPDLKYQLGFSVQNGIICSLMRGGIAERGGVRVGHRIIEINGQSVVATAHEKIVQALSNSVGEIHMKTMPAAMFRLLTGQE

[2] = target: T2, ARHGAP21, Q5T5U3
T2 sequence (Q5T5U3 45-169, limits assumed, looked up): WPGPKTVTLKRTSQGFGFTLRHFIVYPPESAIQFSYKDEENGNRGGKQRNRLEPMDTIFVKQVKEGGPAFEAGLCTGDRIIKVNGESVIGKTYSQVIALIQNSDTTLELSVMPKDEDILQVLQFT

[3] = target: T3, ARHGEF11, O15085
T3 sequence (O15085 42-136, limits assumed, looked up): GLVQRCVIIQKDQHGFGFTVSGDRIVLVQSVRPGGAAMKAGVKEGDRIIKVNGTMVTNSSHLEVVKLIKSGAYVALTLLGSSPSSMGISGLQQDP

[4] = target: CASK, O14936
[5] = target: T4, DLG3_3, Q92796
T4 sequence (Q92796 374-475, limits assumed, looked up): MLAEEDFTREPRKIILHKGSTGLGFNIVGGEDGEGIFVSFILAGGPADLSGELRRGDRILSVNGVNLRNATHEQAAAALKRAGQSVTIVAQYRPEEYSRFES

[6] = target: T5, DVL3, Q92997
T5 sequence (Q92997 244-331, limits assumed, looked up): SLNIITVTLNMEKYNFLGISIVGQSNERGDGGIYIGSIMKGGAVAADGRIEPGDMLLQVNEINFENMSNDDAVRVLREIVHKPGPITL

[7] = target: FRMPD4, Q14CM0
[8] = target: GRASP, Q7Z6J2
[9] = target: GRIP2_6, Q9C0E4
[10] = target: HTRA1, Q92743
[11] = target: HTRA2, O43464
[12] = target: IL16_1, Q14005
[13] = target: T6, LIN7A, O14910
T6 sequence (O14910 103-200, limits assumed, looked up): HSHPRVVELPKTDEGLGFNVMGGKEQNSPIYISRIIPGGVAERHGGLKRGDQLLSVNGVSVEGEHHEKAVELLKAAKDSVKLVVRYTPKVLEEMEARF

[14] = target: T7, LIN7B, Q9HAP6
T7 sequence (Q9HAP6 88-185, limits assumed, looked up): T6 sequence (O14910 103-200, limits assumed, looked up) with S2A, V20I, I35V, E42D, H65Q, K77Q, D78G, K89R

[15] = target: T8, LNX2_3, Q8N448
T8 sequence (Q8N448 463-564, limits assumed, looked up): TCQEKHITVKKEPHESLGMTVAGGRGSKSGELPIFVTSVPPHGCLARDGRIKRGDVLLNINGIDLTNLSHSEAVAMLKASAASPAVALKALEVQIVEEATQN

[16] = target: MAGI2_2, Q86UL8
[17] = target: MAST1, Q9Y2H9
[18] = target: T9, MPP2, Q14168
T9 sequence (Q14168 180-250, limits assumed, looked up): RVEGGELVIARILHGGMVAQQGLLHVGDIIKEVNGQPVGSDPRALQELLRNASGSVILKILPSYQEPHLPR

[19] = target: NHERF2_2, Q15599
[20] = target: NOS1, P29475
[21] = target: T10, PARD3B_1, Q8TEW8
T10 sequence (Q8TEW8 196-299, limits assumed, looked up): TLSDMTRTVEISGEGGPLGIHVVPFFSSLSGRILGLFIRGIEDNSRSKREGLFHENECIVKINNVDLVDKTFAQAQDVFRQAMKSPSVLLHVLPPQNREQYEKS

[22] = target: PDLIM1, O00151
[23] = target: SCRIB_1, Q14160
[24] = target: T11, SIPA1L2, Q9P2F8
T11 sequence (Q9P2F8 945-1036, limits assumed, looked up): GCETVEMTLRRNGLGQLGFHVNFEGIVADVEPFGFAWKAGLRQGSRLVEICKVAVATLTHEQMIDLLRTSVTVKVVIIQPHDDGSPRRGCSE

[25] = target: T12, SNTA1, Q13424
T12 sequence (Q13424 82-180, limits assumed, looked up): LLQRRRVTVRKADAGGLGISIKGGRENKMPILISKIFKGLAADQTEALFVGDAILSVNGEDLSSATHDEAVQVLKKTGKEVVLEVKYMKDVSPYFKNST

[26] = plain residues with an end cap or a label only (N-terminal biotin on a linker: ttds)
[27] = plain residues with an end cap or a label only (N-terminal biotin on a linker: ado-ado, ttds)
[28] = plain residues with an end cap or a label only (N-terminal biotin on a linker: ahx)

Sequence of FRMPD4, Q14CM0 (Q14CM0 67-160): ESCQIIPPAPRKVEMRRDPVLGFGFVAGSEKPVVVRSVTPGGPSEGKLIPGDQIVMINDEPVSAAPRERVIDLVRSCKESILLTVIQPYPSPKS
Sequence of NOS1, P29475 (P29475 9-101): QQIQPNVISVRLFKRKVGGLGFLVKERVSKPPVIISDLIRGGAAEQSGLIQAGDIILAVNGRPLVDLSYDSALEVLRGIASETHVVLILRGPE
Sequence of MAST1, Q9Y2H9 (Q9Y2H9 962-1065): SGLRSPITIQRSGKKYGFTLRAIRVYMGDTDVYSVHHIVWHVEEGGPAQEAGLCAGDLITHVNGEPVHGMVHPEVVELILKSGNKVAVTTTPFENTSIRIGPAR
Sequence of SCRIB_1, Q14160 (Q14160 718-814): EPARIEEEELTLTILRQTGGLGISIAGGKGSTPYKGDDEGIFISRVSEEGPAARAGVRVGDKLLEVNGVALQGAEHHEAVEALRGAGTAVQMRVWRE
Sequence of HTRA2, O43464 (O43464 355-458): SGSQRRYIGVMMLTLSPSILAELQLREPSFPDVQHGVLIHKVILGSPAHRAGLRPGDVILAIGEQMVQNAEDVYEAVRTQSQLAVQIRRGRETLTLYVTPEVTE
Sequence of NHERF2_2, Q15599 (Q15599 142-238): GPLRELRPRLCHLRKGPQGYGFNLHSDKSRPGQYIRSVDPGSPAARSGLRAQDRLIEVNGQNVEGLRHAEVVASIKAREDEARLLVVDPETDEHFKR
Sequence of GRASP, Q7Z6J2 (Q7Z6J2 96-193): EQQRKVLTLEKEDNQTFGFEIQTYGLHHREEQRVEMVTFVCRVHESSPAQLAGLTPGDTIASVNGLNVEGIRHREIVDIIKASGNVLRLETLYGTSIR
Sequence of CASK, O14936 (O14936 487-570): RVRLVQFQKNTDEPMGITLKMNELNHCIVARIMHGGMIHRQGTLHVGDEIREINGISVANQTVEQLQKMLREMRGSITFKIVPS
Sequence of IL16_1, Q14005 (Q14005 210-306): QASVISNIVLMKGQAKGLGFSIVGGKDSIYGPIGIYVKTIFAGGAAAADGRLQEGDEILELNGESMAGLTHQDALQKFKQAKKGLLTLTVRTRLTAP
Sequence of MAGI2_2, Q86UL8 (Q86UL8 410-522): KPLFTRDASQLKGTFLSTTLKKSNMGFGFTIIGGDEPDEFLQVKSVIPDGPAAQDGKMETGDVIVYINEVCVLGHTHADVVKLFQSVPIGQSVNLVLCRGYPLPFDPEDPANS
Sequence of HTRA1, Q92743 (Q92743 360-477): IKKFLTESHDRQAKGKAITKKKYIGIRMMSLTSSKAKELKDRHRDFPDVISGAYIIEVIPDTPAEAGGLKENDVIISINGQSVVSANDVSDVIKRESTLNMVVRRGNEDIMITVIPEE
Sequence of GRIP2_6, Q9C0E4 (Q9C0E4 648-740): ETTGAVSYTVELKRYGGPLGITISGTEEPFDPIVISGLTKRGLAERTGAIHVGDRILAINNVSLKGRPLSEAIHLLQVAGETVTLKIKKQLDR
Sequence of PDLIM1, O00151 (O00151 1-87): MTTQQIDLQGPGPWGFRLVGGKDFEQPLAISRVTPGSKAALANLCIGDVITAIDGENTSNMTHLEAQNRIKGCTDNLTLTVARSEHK

Q: SSIDLWETAL [SLC15A5, A6NIM6] was tested. Which pKd [1, 26] did it give?
A: below the threshold

Q: And the pKd [2, 26]?
A: 4.55

Q: And the pKd [3, 26]?
A: 5.24

Q: And the pKd [4, 26]?
A: below the threshold

Q: What about the pKd [5, 26] of the same binder?
A: 3.8

Q: And the pKd [6, 26]?
A: below the threshold

Q: What about the pKd [7, 26] of the same binder?
A: 5.35

Q: What about the pKd [8, 26] of the same binder?
A: 5.28

Q: And the pKd [9, 26]?
A: below the threshold

Q: And the pKd [10, 26]?
A: 4.25

Q: What about the pKd [11, 26] of the same binder?
A: below the threshold

Q: What about the pKd [12, 26] of the same binder?
A: 4.29

Q: And the pKd [13, 26]?
A: 4.27

Q: And the pKd [14, 26]?
A: 4.92

Q: What about the pKd [15, 26] of the same binder?
A: below the threshold

Q: What about the pKd [16, 26] of the same binder?
A: 4.33

Q: What about the pKd [17, 26] of the same binder?
A: 5.45

Q: What about the pKd [18, 26] of the same binder?
A: below the threshold

Q: And the pKd [19, 26]?
A: 5.41

Q: What about the pKd [20, 26] of the same binder?
A: 4.36

Q: And the pKd [21, 26]?
A: 4.49

Q: And the pKd [22, 26]?
A: 4.22

Q: What about the pKd [23, 26] of the same binder?
A: 5.76

Q: What about the pKd [24, 26] of the same binder?
A: below the threshold

Q: What about the pKd [25, 26] of the same binder?
A: 5.19

Q: For SNAKAVETDV [KCNA4, P22459], which pKd [1, 27] is on record?
A: below the threshold

Q: And the pKd [2, 27]?
A: below the threshold

Q: And the pKd [3, 27]?
A: 3.59

Q: What about the pKd [4, 27] of the same binder?
A: below the threshold

Q: What about the pKd [5, 27] of the same binder?
A: below the threshold

Q: What about the pKd [6, 27] of the same binder?
A: below the threshold

Q: And the pKd [7, 27]?
A: below the threshold

Q: And the pKd [8, 27]?
A: below the threshold

Q: What about the pKd [9, 27] of the same binder?
A: below the threshold

Q: What about the pKd [10, 27] of the same binder?
A: below the threshold

Q: And the pKd [11, 27]?
A: below the threshold

Q: And the pKd [12, 27]?
A: below the threshold

Q: And the pKd [13, 27]?
A: below the threshold

Q: What about the pKd [14, 27] of the same binder?
A: below the threshold

Q: What about the pKd [15, 27] of the same binder?
A: below the threshold

Q: And the pKd [16, 27]?
A: below the threshold

Q: What about the pKd [17, 27] of the same binder?
A: 4.32

Q: And the pKd [18, 27]?
A: below the threshold

Q: And the pKd [19, 27]?
A: 3.59

Q: And the pKd [20, 27]?
A: 3.48

Q: What about the pKd [21, 27] of the same binder?
A: below the threshold

Q: What about the pKd [22, 27] of the same binder?
A: 3.77

Q: And the pKd [23, 27]?
A: below the threshold

Q: And the pKd [24, 27]?
A: below the threshold

Q: What about the pKd [25, 27] of the same binder?
A: 4.7

Q: PPRQRSETQV [HPV82-E6, Q9IR59] was tested. Which pKd [1, 26] did it give?
A: below the threshold

Q: What about the pKd [2, 26] of the same binder?
A: below the threshold

Q: What about the pKd [3, 26] of the same binder?
A: 3.74

Q: And the pKd [4, 26]?
A: below the threshold

Q: What about the pKd [5, 26] of the same binder?
A: 4.63

Q: And the pKd [6, 26]?
A: below the threshold

Q: And the pKd [7, 26]?
A: below the threshold

Q: And the pKd [8, 26]?
A: below the threshold

Q: And the pKd [9, 26]?
A: below the threshold

Q: And the pKd [10, 26]?
A: below the threshold

Q: What about the pKd [11, 26] of the same binder?
A: below the threshold

Q: And the pKd [12, 26]?
A: below the threshold

Q: And the pKd [13, 26]?
A: below the threshold

Q: And the pKd [14, 26]?
A: below the threshold

Q: What about the pKd [15, 26] of the same binder?
A: below the threshold

Q: What about the pKd [16, 26] of the same binder?
A: 5.89

Q: And the pKd [17, 26]?
A: 4.41

Q: What about the pKd [18, 26] of the same binder?
A: below the threshold

Q: What about the pKd [19, 26] of the same binder?
A: below the threshold

Q: What about the pKd [20, 26] of the same binder?
A: 3.88

Q: And the pKd [21, 26]?
A: below the threshold

Q: And the pKd [22, 26]?
A: below the threshold

Q: What about the pKd [23, 26] of the same binder?
A: 4.12

Q: What about the pKd [24, 26] of the same binder?
A: below the threshold

Q: And the pKd [25, 26]?
A: 4.15

Q: With SKKNELFSNL [NHERF1, O14745] as the binder, how does the pKd [1, 28] read?
A: below the threshold

Q: What about the pKd [2, 28] of the same binder?
A: below the threshold

Q: What about the pKd [3, 28] of the same binder?
A: below the threshold

Q: And the pKd [4, 28]?
A: below the threshold

Q: And the pKd [5, 28]?
A: below the threshold

Q: What about the pKd [6, 28] of the same binder?
A: below the threshold

Q: And the pKd [7, 28]?
A: below the threshold

Q: What about the pKd [8, 28] of the same binder?
A: below the threshold

Q: And the pKd [9, 28]?
A: below the threshold

Q: What about the pKd [10, 28] of the same binder?
A: below the threshold

Q: And the pKd [11, 28]?
A: below the threshold

Q: What about the pKd [12, 28] of the same binder?
A: below the threshold

Q: What about the pKd [13, 28] of the same binder?
A: below the threshold

Q: What about the pKd [14, 28] of the same binder?
A: below the threshold

Q: What about the pKd [15, 28] of the same binder?
A: below the threshold

Q: And the pKd [16, 28]?
A: below the threshold

Q: What about the pKd [17, 28] of the same binder?
A: 3.6

Q: What about the pKd [18, 28] of the same binder?
A: below the threshold

Q: What about the pKd [19, 28] of the same binder?
A: below the threshold

Q: And the pKd [20, 28]?
A: below the threshold

Q: What about the pKd [21, 28] of the same binder?
A: below the threshold

Q: What about the pKd [22, 28] of the same binder?
A: below the threshold

Q: And the pKd [23, 28]?
A: below the threshold

Q: What about the pKd [24, 28] of the same binder?
A: below the threshold

Q: What about the pKd [25, 28] of the same binder?
A: below the threshold
